Eight molecules from patent publication US11413329B2, “Cancer cell trap” (BOARD OF REGENTS, THE UNIVERSITY OF TEXAS SYSTEM, priority 2012, dated 2022) can be followed below.

The subject of data set [1] is PC3 prostate cancer cells. The data set is described as follows: PC3 prostate cancer cell recruitment to PEG hydrogel cancer cell traps. Format: in vivo, mouse. The settings on record: C57 mice, released from subcutaneous PEG hydrogel, 24 hours after intravenous transplantation, fluorescence intensity, vs saline. The source says: Using near-infrared labeled PC3 prostate cell transplanted mice, the effect of hydrogel cancer cell traps in reducing cancer metastasis was studied. Specifically, PEG hydrogel was fabricated as following. Carboxyl-terminal PEG derivative polymer was synthesized using free radical polymerization. In brief, 4,4′-azobis(4-cyanovaleric acid) and various weight ratios (10:1-20:1) of 2-(2-Methoxyethoxy)ethyl methacrylate (MEO2MA) and oligo(ethylene glycol)monomethyl ether methacrylates (Mw:475;OEOMA475) were dissolved in ethanol to form a 20 wt % monomer solution. The solution was purged with nitrogen gas for 10 min and incubated at 60° C. for 6 h. The solvent was then removed with evaporation under vacuum and the crude polymers are re-dissolved in DI water and were purified with exhaust dialysis against DI water and then lyophilized. The low critical solution temperature (LCST) of the carboxyl-terminal PEG derivative polymers was determined using an UV-vis spectrometer. By changing the molar ratios of MEO2MA to OEOMA475, the carboxyl-terminal PEG derivative polymer with LCST of 32° C. was achieved and the polymer used to fabricate thermogelling bioactive hydrogel scaffold as described below. Incorporation of chemokines/cytokines to PEG hydrogel was achieved by physical adsorption. PEG hydrogel was mixed with vascular endothelial growth factor (VEGF) (100 ng/ml), erythropoietin (EPO) (100 international unit/ml), stromal derived factor-1α (SDF-1α) or saline (as control). The hydrogel samples were then injected into the subcutaneous cavity (under the skin) of C57 mice via 20 gauge needles. The mice were then transplanted intravenously with PC3 prostate cancer cells (5×10^6/mouse).

A short description of data set [2]: Release rates of chemokines/growth factors from cancer cell traps. The settings on record: for Release rates: optimal release rate from cancer cell traps; for Duration: release from cancer cell traps. The source says: The Experiments have been carried out to determine the release rates of various cancer stem cell chemokines/growth factors from cancer cell traps. The optimal release rates for each biomolecules are listed below.
Cancer cell trap size and dimension for human patients. All studies carried out thus far used mice cancer models. Since the cancer cells are recruited based on the chemokines gradient, localized concentrations, but not the systemic concentrations, are the determining factors. In other words, the effectiveness of the cancer cell traps are determined on the localized release rates as listed in the above table.

Data set [3] concerns CD11b+ inflammatory cells. Put plainly: Murine cancer metastasis model: inflammatory cell recruitment to subcutaneous microsphere implants. Format: in vivo, C57BL/6 mice. The conditions noted are these: vs control. The protocol: The animal experiments were carried out using C57BL/6 mice (6-10 week old) from Jackson Laboratory (Bar Harbor, Me., USA). This murine cancer metastasis model comprised of two consecutive steps. First, biomaterial microspheres (75 mg/0.5 ml saline/mouse) were implanted in the dorsal subcutaneous space of mice to elicit localized subcutaneous inflammation. Second, after microsphere implantation for different periods of time (6 hours-14 days), cancer cells (5×10^6 cells/0.2 ml/mouse) were transplanted in the peritoneal cavity. 24 h after tumor cell trans-plantation the animals were sacrificed. The vital organs, lymph nodes, the microsphere implants and surrounding tissues were then recovered and frozen in OCT embedding media (Polysciences Inc., Warrington, Pa., USA) at -80° C. The peripheral blood was also collected for further analysis. Eight μm thick sections were sliced using a Leica Cryostat (CM1850) and placed on poly-L-lysine coated slides for histological and immunohistochemical analyses. […] FITC-conjugated antibody incubated tissue section was ready for image analysis. […] All tissue section images were taken using a Leica fluorescence microscope (Leica Microsystems GmbH, Wetzlar, Germany) equipped with a Retiga-EXi CCD camera (QImaging, Surrey, BC, Canada) as described earlier. […]

For a further data set, the system named is B16F10 melanoma cells. Put plainly: Murine cancer metastasis model: melanoma cell migration to subcutaneous microsphere implants and lymph nodes. The settings on record: B16F10 cells intraperitoneal. The format is in vivo, C57BL/6 mice. The protocol: The animal experiments were carried out using C57BL/6 mice (6-10 week old) from Jackson Laboratory (Bar Harbor, Me., USA). This murine cancer metastasis model comprised of two consecutive steps. First, biomaterial microspheres (75 mg/0.5 ml saline/mouse) were implanted in the dorsal subcutaneous space of mice to elicit localized subcutaneous inflammation. Second, after microsphere implantation for different periods of time (6 hours-14 days), cancer cells (5×10^6 cells/0.2 ml/mouse) were transplanted in the peritoneal cavity. 24 h after tumor cell trans-plantation the animals were sacrificed. The vital organs, lymph nodes, the microsphere implants and surrounding tissues were then recovered and frozen in OCT embedding media (Polysciences Inc., Warrington, Pa., USA) at −80° C. The peripheral blood was also collected for further analysis. […]
Immunohistological analyses for CD11b+ inflammatory cells and HMB45+ melanoma cells were carried out to assess the degree of implant-mediated inflammatory responses and melanoma cell migration, respectively. […] FITC-conjugated antibody incubated tissue section was ready for image analysis. […] All tissue section images were taken using a Leica fluorescence microscope (Leica Microsystems GmbH, Wetzlar, Germany) equipped with a Retiga-EXi CCD camera (QImaging, Surrey, BC, Canada) as described earlier. […]

Data set [4] is described as follows: Release kinetics of cytokines/growth factors from MB scaffolds. The settings on record: gelatin MB scaffolds; for sustained release, share of total amounts per day: after the bolus; for bolus release: within the first 24 hours. From the text: Chemokine/growth factor loaded PLGA scaffolds were fabricated using our protein microbubble fabrication method. Briefly, 2-20% w/v protein solution with various chemokines was overlaid with nitrogen gas and sonicated using a probe sonicator (Ultrasonix, Bothell, Wash.) at 20 kHz for 10 seconds. Protein solution can be composed of single proteins or protein mixtures in different ratios. The potential protein candidates including albumin, collagen, gelatin, immunoglobulins, extracellular matrix proteins, fibronectin, etc. Protein microbubble solutions can be added to PLGA (3-15% w/v in 1,4 dioxane) in a 1:1 ratio and gently agitated. They were then quenched in liquid nitrogen and lyophilized for 72 hours at 0.01-0.1 mBar vacuum in a Freezone 12 lyophilizer (Labconco, Kansas City, Mo., USA).
The microbubble (MB) scaffolds were analyzed using Scanning Electron Microscopy. […] Protein distribution and internal architecture of the scaffolds was determined by staining histological sections with Coomassie Blue as described earlier. […] In contrast, Coomassie Blue staining of the gelatin MB scaffold sections indicated the presence of protein around the pores and throughout the matrix of the gelatin MB scaffolds (FIG. 12C). The compressive strength of the scaffolds was tested using an MTS Insight 2 machine fitted with a 500 N load cell. Samples (5 mm width and 5 mm thickness) were compressed to 10% strain at a deflection rate of 2 mm/min. The Young's modulus was calculated from the slope of the curve similar to our earlier publication. […] Finally, the release kinetics of cytokines/growth factors from MB scaffolds was determined using Oyster 800-conjugated EPO and Oyster 800-conjugated SDF.

“Also recorded” adds a separate entry of the source.

As for “EPO: erythropoietin, released from cancer cell traps”, the “recruitment of PC3 prostate cancer cells to the implant sites” value (“recruitment of PC3 prostate cancer cells” for short) in data set [1] is “increased the recruitment”. Further, in data set [2], the Release rates is listed as 1.5-2.5 international international units/1 milliliter of hydrogel/particle cancer traps or 1 cubic centimeters scaffold traps/days and the Duration is listed as greater than 30 days.
As to `c1cc(CN2CCCNCCNCCCNCC2)ccc1CN1CCCNCCNCCCNCC1` [AMD3100], the “inflammatory cell (CD11b+) recruitment to the subcutaneous microsphere implantation site” value in data set [3] is “drastically reduced”. Moreover, in the data set with B16F10 melanoma cells (PLA microsphere-bearing mice, vs saline), the “accumulation of melanoma cells in lymph nodes” value is on record as “no effect”. Further, the “recruitment of melanoma cells (HMB45+) to the subcutaneous microsphere implantation site” value in the data set with B16F10 melanoma cells (subcutaneous microsphere implants, 24 h after transplantation, vs control) is reported as “drastically reduced; also recorded: inhibited”.
VEGF: in data set [1], the “recruitment of PC3 prostate cancer cells” value was “increased the recruitment”.
For the molecule SDF-1α, the “recruitment of PC3 prostate cancer cells” value in data set [1] is given as “increased the recruitment”. In data set [2], the Release rates is 100 ng/1 milliliter of ng/1 milliliter of hydrogel/particle cancer traps or 1 cubic centimeters scaffold traps/day and the Duration is listed as greater than 24 days.
For the molecule “Oyster 800-conjugated EPO: NIR dye conjugated EPO released from gelatin MB scaffolds”, in data set [4], the “sustained release, share of total amounts per day” value is given as “approximately 2%” and the bolus release is 20%.
The matching figures for “Oyster 800-conjugated SDF: NIR dye conjugated SDF released from gelatin MB scaffolds”: “approximately 2%” and 20%.
Take “RANTES/CCL5: chemokine released from cancer cell traps”: in data set [2], the Release rates is listed as 10 ng/1 milliliter of ng/1 milliliter of hydrogel/particle cancer traps or 1 cubic centimeters scaffold traps/day and the Duration is given as greater than 21 days.
The matching figures for “Hepatocyte growth factor (HGF/SF): hepatocyte growth factor/scatter factor released from cancer cell traps”: 15 ng/1 milliliter of ng/1 milliliter of hydrogel/particle cancer traps or 1 cubic centimeters scaffold traps/day and greater than 28 days.
